In publication PMC7395093:
Numbering of substitutions follows the chain as printed.

B1: C-terminal GFP-tagged Atg16L1 WT (full-length) [mouse] / N-terminally V5 epitope-tagged (full-length) [mouse] (parent)
chain 1: MTSEMESSLEVSFSSSCAVSGASGCLPPARSRIFKIIVIGDSNVGKTCLTYRFCAGRFPDRTEATIGVDFRERAVDIDGERIKIQLWDTAGLERFRKSMVQHYYRNVHAVVFVYDMTNMASFHSLPAWIEECKQHLLANDIPRILVGNKCDLRSAIQVPTDLAQKFADTHSMPLFETSAKNPNDNDHVEAIFMTLAHKLKSHKPLMLSQLPDNRISLKPETKPAVTCWC
chain 2: MSSGLRAADFPRWKRHIAEELRRRDRLQRQAFEEIILQYTKLLEKSDLHSVLTQKLQAEKHDMPNRHEISPGHDGAWNDSQLQEMAQLRIKHQEELTELHKKRGELAQLVIDLNNQMQQKDKEIQMNEAKISEYLQTISDLETNCLDLRTKLQDLEVANQTLKDEYDALQITFTALEEKLRKTTEENQELVTRWMAEKAQEANRLNAENEKDSRRRQARLQKELAEAAKEPLPVEQDDDIEVIVDETSDHTEETSPVRAVSRAATKRLSQPAGGLLDSITNIFGRRSVSSIPVPQDIMDTHPASGKDVRVPTTASYVFDAHDGEVNAVQFSPGSRLLATGGMDRRVKLWEAFGDKCEFKGSLSGSNAGITSIEFDSAGAYLLAASNDFASRIWTVDDYRLRHTLTGHSGKVLSAKFLLDNARIVSGSHDRTLKLWDLRSKVCIKTVFAGSSCNDIVCTEQCVMSGHFDKKIRFWDIRSESVVREMELLGKITALDLNPERTELLSCSRDDLLKVIDLRTNAVKQTFSAPGFKCGSDWTRVVFSPDGSYVAAGSAEGSLYVWSVLTGKVEKVLSKQHSSSINAVAWAPSGLHVVSVDKGSRAVLWAQP
B2: N-terminally V5 epitope-tagged WT (full-length) [mouse] / C-terminal GFP-tagged Atg16L1 WT (full-length) [mouse] (parent)
chain 1: B1 chain 1 with L92Q
chain 2: B1 chain 2

Variants of: B1
Test: GFP co-immunoprecipitation, western blot band quantification
Conditions: with N-terminally V5 epitope-tagged Rab33B Q92L (full-length) [mouse]; Overexpression was done in HEK293 cells; read off a plot

response | Variant
0.13 a.u. | chain 2 K198A
0.06 a.u. | chain 2 A202W
0.12 a.u. | chain 2 N206K

Same assay, conditions: with C-terminal GFP-tagged Atg16L1 WT (full-length) [mouse]; Overexpression was done in HEK293 cells; read off a plot

response | Variant
0.32 a.u. | chain 1 F70E
0.04 a.u. | chain 1 F70A

Variants of: B2
Test: as above
Conditions: with C-terminal GFP-tagged Atg16L1 WT (full-length) [mouse]; Overexpression was done in HEK293 cells; read off a plot

response | Variant
0.6 a.u. | chain 1 T47N
